Laboratory results taken from the supplement of paper PMC7125110.
± gives the standard error. For some of these results: Fewer inactive variants are shown than the library holds.

B1: glmS ribozyme (parent)
chain: AUAAAAGCGCCAGAACUACAGAAAUGUAGUUGACGAGGAGGAGGUUUAUCGAAUUUUCGGCGGAUGCCUCCAAA

Tests used:
Settings in all cases: with glucosamine-6-phosphate
[1] = variants of: B1; experiment: kcat; higher = faster cleavage; RNA array
Summary of the method: (§1)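 A hybridised Cy3 probe tracked barcoded ribozyme variants, transcribed in situ by E. coli RNA polymerase on sequenced MiSeq chips, at 37 °C. The variants received 40 μM to 10 mM glucosamine-6-phosphate in HEPES/KCl/Mg(OAc)2 buffer. kobs came from decay fits and kcat and KM from weighted Michaelis–Menten fits.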

[2] = variants of: B1; experiment: KM; higher = weaker cofactor use; RNA array
Summary of the method: as §1

[3] = variants of: B1; experiment: self-cleavage kobs at 40 uM GlcN6P; higher = faster cleavage; RNA array
Summary of the method: as §1

[4] = variants of: B1; experiment: self-cleavage kobs at 160 uM GlcN6P; higher = faster cleavage; RNA array
Summary of the method: as §1

[5] = variants of: B1; experiment: self-cleavage kobs at 640 uM GlcN6P; higher = faster cleavage; RNA array
Summary of the method: as §1

[6] = variants of: B1; experiment: self-cleavage kobs at 10000 uM GlcN6P; higher = faster cleavage; RNA array
Summary of the method: as §1

[7] = variants of: B1; experiment: self-cleavage kobs at 2500 uM GlcN6P; higher = faster cleavage; RNA array
Summary of the method: as §1

Variant: AUAAAAGCGCCAGAACUACAGAAAUGUAGUUGACGAGGAGGAGGAUUAUCGAAUUUUCGGCGGAUGCCUCUAAA [U45A C71U]
- kcat [1]: 0.0639 ± 0.022 s⁻¹
- KM [2]: 2060 ± 810 µM
- self-cleavage kobs at 40 uM GlcN6P [3]: 0.00126 ± 0.00019 s⁻¹
- self-cleavage kobs at 160 uM GlcN6P [4]: 0.00507 ± 0.00093 s⁻¹
- self-cleavage kobs at 640 uM GlcN6P [5]: 0.012 ± 0.0029 s⁻¹
- self-cleavage kobs at 10000 uM GlcN6P [6]: 0.0584 ± 0.019 s⁻¹

Variant: AUAAAAGCGCCAGAACUACAGAAAUGUAGUUGACGAGGAGGAGGUUUAUCGGAUUUUCGGCGGAUGACUCCAAA [A52G C67A]
- kcat [1]: 0.000584 ± 5.9e-05 s⁻¹
- KM [2]: 1300 ± 300 µM
- self-cleavage kobs at 160 uM GlcN6P [4]: 7.46e-05 ± 2e-05 s⁻¹
- self-cleavage kobs at 640 uM GlcN6P [5]: 0.000199 ± 3.2e-05 s⁻¹
- self-cleavage kobs at 2500 uM GlcN6P [7]: 0.000301 ± 8.4e-05 s⁻¹
- self-cleavage kobs at 10000 uM GlcN6P [6]: 0.000533 ± 5.6e-05 s⁻¹

Variant: AUAAAAGCGCCUGAACUACAGAAAUGUAGUUGACGAGGAGGAGGUUUAUCGACUUUUCGGCGGAUGCCUCCAAA [A12U A53C]
- kcat [1]: 0.0145 ± 0.006 s⁻¹
- self-cleavage kobs at 40 uM GlcN6P [3]: 0.000569 ± 7.4e-05 s⁻¹
- self-cleavage kobs at 640 uM GlcN6P [5]: 0.0051 ± 0.0014 s⁻¹
- self-cleavage kobs at 2500 uM GlcN6P [7]: 0.00439 ± 0.0022 s⁻¹
- self-cleavage kobs at 10000 uM GlcN6P [6]: 0.0183 ± 0.0027 s⁻¹

Variant: AUAAAAGCGCCAGAACUACAGAAAUGUAGUUGACGAGGAGGAGGUUUAUAGAAUUUUCGGCGGAUGCCUUCAAA [C50A C70U]
- kcat [1]: 3.03e-05 ± 6.5e-06 s⁻¹
- self-cleavage kobs at 640 uM GlcN6P [5]: 2.82e-05 ± 9.4e-06 s⁻¹
- self-cleavage kobs at 2500 uM GlcN6P [7]: 3.95e-05 ± 6.5e-06 s⁻¹
- self-cleavage kobs at 10000 uM GlcN6P [6]: 1.9e-05 ± 7e-06 s⁻¹

Variant: AUAAAAGCGCCAGCACUACAGAAAUGUAGUUGACGAGGAGGAGGUUUAUCGAAUCUUCGGCGGAUGCCUCCAAA [A14C U55C]
- kcat [1]: 0.00399 ± 0.0011 s⁻¹
- KM [2]: 1800 ± 660 µM
- self-cleavage kobs at 40 uM GlcN6P [3]: 8.57e-05 ± 1.1e-05 s⁻¹
- self-cleavage kobs at 160 uM GlcN6P [4]: 0.000312 ± 7.6e-05 s⁻¹
- self-cleavage kobs at 640 uM GlcN6P [5]: 0.00122 ± 0.00015 s⁻¹
- self-cleavage kobs at 2500 uM GlcN6P [7]: 0.00171 ± 0.00035 s⁻¹
- self-cleavage kobs at 10000 uM GlcN6P [6]: 0.00439 ± 0.00076 s⁻¹

Variant: AUAAAAGCGCCAGAACUACAGAAAUGUAGUUGACGAGGAGGAGGUUUAUCGAAUUUUCAGCGGAUGACUCCAAA [G59A C67A]
- kcat [1]: 1.53e-05 ± 3.7e-06 s⁻¹

Variant: AUAAAAGCGCCAGCACUACAGAAAUGUAGUUGACGAGGAGGAGGUAUAUCGAAUUUUCGGCGGAUGCCUCCAAA [A14C U46A]
- kcat [1]: 0.000352 ± 1.6e-05 s⁻¹
- KM [2]: 1880 ± 170 µM
- self-cleavage kobs at 640 uM GlcN6P [5]: 9.13e-05 ± 1e-05 s⁻¹
- self-cleavage kobs at 2500 uM GlcN6P [7]: 0.000194 ± 2.1e-05 s⁻¹
- self-cleavage kobs at 10000 uM GlcN6P [6]: 0.000301 ± 3.2e-05 s⁻¹

Variant: AUAAAAGCGCCAGAACUACAGAAAUGUAGUUGACGAGGAGGAGGUAUAUCGAAUUUUCGGCGGAUCCCUCCAAA [U46A G66C]
- kcat [1]: 0.00211 ± 0.0008 s⁻¹
- self-cleavage kobs at 40 uM GlcN6P [3]: 5.47e-05 ± 1.7e-05 s⁻¹
- self-cleavage kobs at 160 uM GlcN6P [4]: 0.000161 ± 4.3e-05 s⁻¹
- self-cleavage kobs at 640 uM GlcN6P [5]: 0.00053 ± 0.00011 s⁻¹
- self-cleavage kobs at 2500 uM GlcN6P [7]: 0.000776 ± 0.00018 s⁻¹
- self-cleavage kobs at 10000 uM GlcN6P [6]: 0.00237 ± 0.00038 s⁻¹

Variant: AUAAAUGCGCCAGAACUACAGAAAUGUAGUUGACGAGGAGGAGGUUUAUCGAAUUAUCGGCGGAUGCCUCCAAA [A6U U56A]
- kcat [1]: 0.000103 ± 7e-06 s⁻¹
- KM [2]: 1590 ± 350 µM
- self-cleavage kobs at 640 uM GlcN6P [5]: 3.39e-05 ± 1e-05 s⁻¹
- self-cleavage kobs at 2500 uM GlcN6P [7]: 5.83e-05 ± 9e-06 s⁻¹
- self-cleavage kobs at 10000 uM GlcN6P [6]: 9.06e-05 ± 9.5e-06 s⁻¹

Variant: AUAAAAGCGCCAGAACUACAGAAAUGUAGUUGACGAGGAGGAGGUUUAUCGAAUUUACGCCGGAUGCCUCCAAA [U57A G60C]
- kcat [1]: 2.43e-05 ± 9.7e-06 s⁻¹

Variant: AUAAAAGCGCCAGAACUACAGAAAUGUAGUUGUCGAGGAGGAGGUUUAUCGAAUUUUCGGCGGAUUCCUCCAAA [A33U G66U]
- kcat [1]: 1.11e-05 ± 1.2e-06 s⁻¹
- self-cleavage kobs at 160 uM GlcN6P [4]: < 1e-05 s⁻¹

Variant: AUAAAAGCGCCAGAACUACAGAAAUGUAUUUGACGAGGAGGAGGUUUAUUGAAUUUUCGGCGGAUGCCUCCAAA [G29U C50U]
- kcat [1]: 1.34e-05 ± 9.1e-07 s⁻¹
- KM [2]: 3520 ± 700 µM
- self-cleavage kobs at 160 uM GlcN6P [4]: < 1e-05 s⁻¹

Variant: AUAAAAGCGCCAGAACUACAGAAAUGUAGUAGACGAGGAGGAGGUUUAUCGAAUUUUAGGCGGAUGCCUCCAAA [U31A C58A]
- kcat [1]: 0.00103 ± 0.00024 s⁻¹
- self-cleavage kobs at 10000 uM GlcN6P [6]: 0.000242 ± 3.7e-05 s⁻¹

Variant: AUAAAAGCGCCAGAACUACAGAAAUGUAGUUGACGAGGAGGAGGUUUAUCGAAUUUUCGGCGGAAGCCUACAAA [U65A C70A]
- kcat [1]: 7.41e-05 ± 5e-06 s⁻¹
- KM [2]: 128 ± 49 µM
- self-cleavage kobs at 160 uM GlcN6P [4]: 4.4e-05 ± 1.4e-05 s⁻¹
- self-cleavage kobs at 640 uM GlcN6P [5]: 5.79e-05 ± 1.2e-05 s⁻¹
- self-cleavage kobs at 2500 uM GlcN6P [7]: 6.44e-05 ± 1.3e-05 s⁻¹
- self-cleavage kobs at 10000 uM GlcN6P [6]: 8.15e-05 ± 1.3e-05 s⁻¹

Variant: AUAAAAGCGUCAGAACUACAGAAAUGUAGUUGACGAGGAGGAGGUUCAUCGAAUUGUCGGCGGAUGCUACCAAA [C10U U47C U56G C68U U69A]
- kcat [1]: < 1e-05 s⁻¹
- KM [2]: 429 ± 190 µM
- self-cleavage kobs at 640 uM GlcN6P [5]: < 1e-05 s⁻¹
- self-cleavage kobs at 10000 uM GlcN6P [6]: < 1e-05 s⁻¹

Variant: AUAAAAGCGCCAGAACUACAGAAAUGUAGUCGACGAGGAGGAGGUUUAUCGAAUGUUCGGCGGAUGCCUCCAAA [U31C U55G]
- kcat [1]: 0.0059 ± 0.0019 s⁻¹
- KM [2]: 2750 ± 1200 µM
- self-cleavage kobs at 40 uM GlcN6P [3]: 0.000126 ± 1.5e-05 s⁻¹
- self-cleavage kobs at 160 uM GlcN6P [4]: 0.000291 ± 3.8e-05 s⁻¹
- self-cleavage kobs at 640 uM GlcN6P [5]: 0.00104 ± 0.00018 s⁻¹
- self-cleavage kobs at 2500 uM GlcN6P [7]: 0.0022 ± 0.00033 s⁻¹
- self-cleavage kobs at 10000 uM GlcN6P [6]: 0.00547 ± 0.00061 s⁻¹

Variant: AUAAAAUCGCCAGAACUACAGAAAUGUAGUUGACGAGGAGGAGGUUUUUGGAAGUUUCGGCGGAUGCCUCCAAA [G7U A48U C50G U54G]
- kcat [1]: 3.22e-05 ± 1.3e-05 s⁻¹

Variant: AUAAAAGCGCCAGAACUACAGAAAUGUAGUUGACGAGGAGGAGGUUUAUCGAUUUUUAGGCGGAUGCCUCCAAA [A53U C58A]
- kcat [1]: 0.000327 ± 1.5e-05 s⁻¹
- KM [2]: 3010 ± 250 µM
- self-cleavage kobs at 640 uM GlcN6P [5]: 5.94e-05 ± 5.9e-06 s⁻¹
- self-cleavage kobs at 2500 uM GlcN6P [7]: 0.000143 ± 1.3e-05 s⁻¹
- self-cleavage kobs at 10000 uM GlcN6P [6]: 0.000256 ± 2.2e-05 s⁻¹
